According to patent publication US11390660B2, “Uterine cancer treatments” (Immatics Biotechnologies GmbH, priority 2016, dated 2022):

What was measured:
HLA-A*02:01 = HLA-A*02:01 (Homo sapiens, UniProt P04439, D140Y/D185E/D98H/E176V/E277Q/G131W/G231S/I119V/I121R/I166T/I218V/L300P/L318F/N151K/N90K/P208A/P217A/Q86G/Q94H/R138H/R169H/T345S); test: MHC binding assay: UV-ligand exchange with β2m ELISA; settings: peptide exchange yield, binding to HLA-A*02:01
Description: Candidate peptides for T cell based therapies according to the present invention were further tested for their MHC binding capacity (affinity). The individual peptide-MHC complexes were produced by UV-ligand exchange, where a UV-sensitive peptide is cleaved upon UV-irradiation, and exchanged with the peptide of interest as analyzed. Only peptide candidates that can effectively bind and stabilize the peptide-receptive MHC molecules prevent dissociation of the MHC complexes. To determine the yield of the exchange reaction, an ELISA was performed based on the detection of the light chain (β2m) of stabilized MHC complexes. The assay was performed as generally described in Rodenko et al. (Rodenko et al., 2006).
96 well MAXISorp plates (NUNC) were coated over night with 2 ug/ml streptavidin in PBS at room temperature, washed 4× and blocked for 1 h at 37° C. in 2% BSA containing blocking buffer. Refolded HLA-A*02:01/MLA-001 monomers served as standards, covering the range of 15-500 ng/ml. Peptide-MHC monomers of the UV-exchange reaction were diluted 100 fold in blocking buffer. Samples were incubated for 1 h at 37° C., washed four times, incubated with 2 ug/ml HRP conjugated anti-β2m for 1 h at 37° C., washed again and detected with TMB solution that is stopped with […]. Absorption was measured at 450 nm. Candidate peptides that show a high exchange yield (preferably higher than 50%, most preferred higher than 75%) are generally preferred for a generation and production of antibodies or fragments thereof, and/or T cell receptors or fragments thereof, as they show sufficient avidity to the MHC molecules and prevent dissociation of the MHC complexes.

CD8+ T cells = test: In vitro T-cell priming assay with aAPCs loaded with peptide/MHC complexes and anti-CD28 antibody, pMHC multimer readout; format: cell-based, human; settings: in vitro immunogenicity, HLA-A*02 restricted peptides, positive wells among evaluable (Table 10B)
Description: In order to obtain information regarding the immunogenicity of the TUMAPs of the present invention, the inventors performed investigations using an in vitro T-cell priming assay based on repeated stimulations of CD8+ T cells with artificial antigen presenting cells (aAPCs) loaded with peptide/MHC complexes and anti-CD28 antibody.
In order to perform in vitro stimulations by artificial antigen presenting cells loaded with peptide-MHC complex (pMHC) and anti-CD28 antibody, the inventors first isolated CD8+ T cells from fresh HLA-A*02 leukapheresis products via positive selection using CD8 microbeads (Miltenyi Biotec, Bergisch-Gladbach, Germany) of healthy donors obtained from the University clinics Mannheim, Germany, after informed consent.
PBMCs and isolated CD8+ lymphocytes were incubated in T-cell medium (TCM) until use consisting of RPMI-Glutamax (Invitrogen, Karlsruhe, Germany) supplemented with 10% heat inactivated human AB serum (PAN-Biotech, Aidenbach, Germany), 100 U/ml Penicillin/100 μg/ml Streptomycin (Cambrex, Cologne, Germany), 1 mM sodium pyruvate (CC Pro, Oberdorla, Germany), 20 μg/ml Gentamycin (Cambrex). 2.5 ng/ml IL-7 (PromoCell, Heidelberg, Germany) and 10 U/ml IL-2 (Novartis Pharma, Nürnberg, Germany) were also added to the TCM at this step.
Generation of pMHC/anti-CD28 coated beads, T-cell stimulations and readout was performed in a highly defined in vitro system using four different pMHC molecules per stimulation condition and 8 different pMHC molecules per readout condition.
The purified co-stimulatory mouse IgG2a anti human CD28 Ab 9.3 (Jung et al., 1987) was chemically biotinylated using Sulfo-N-hydroxysuccinimidobiotin as recommended by the manufacturer (Perbio, Bonn, Germany). Beads used were 5.6 μm diameter streptavidin coated polystyrene particles (Bangs Laboratories, Illinois, USA).
800.000 beads/200 μI were coated in 96-well plates in the presence of 4×12.5 ng different biotin-pMHC, washed and 600 ng biotin anti-CD28 were added subsequently in a volume of 200 μI. Stimulations were initiated in 96-well plates by co-incubating 1×10^6 CD8+ T cells with 2×10^5 washed coated beads in 200 μI TCM supplemented with 5 ng/ml IL-12 (PromoCell) for 3 days at 37° C. Half of the medium was then exchanged by fresh TCM supplemented with 80 U/ml IL-2 and incubating was continued for 4 days at 37° C. This stimulation cycle was performed for a total of three times. For the pMHC multimer readout using 8 different pMHC molecules per condition, a two-dimensional combinatorial coding approach was used as previously described (Andersen et al., 2012) with minor modifications encompassing coupling to 5 different fluorochromes. Finally, multimeric analyses were performed by staining the cells with Live/dead near IR dye (Invitrogen, Karlsruhe, Germany), CD8-FITC antibody clone SK1 (BD, Heidelberg, Germany) and fluorescent pMHC multimers. For analysis, a BD LSRII SORP cytometer equipped with appropriate lasers and filters was used. Peptide specific cells were calculated as percentage of total CD8+ cells. Evaluation of multimeric analysis was done using the FlowJo software (Tree Star, Oregon, USA). In vitro priming of specific multimer+ CD8+ lymphocytes was detected by comparing to negative control stimulations.

Peptide exchange (HLA-A*02:01)	Substance	Wells positive [%] (CD8+ T cells)
++ (>20% = ++)	7 (SILSLLIKL; listed as Homo sapiens) [compound 7]	++ (20%-49% = ++)
+++ (>50 = +++)	9 (SLYPGTETM; listed as Homo sapiens) [compound 9]	+ (<20% = +)
++++ (> 75% = ++++)	10 (AILDVVVNL; listed as Homo sapiens) [compound 10]	+ (<20% = +)
++++ (> 75% = ++++)	14 (FLVDSLISA; listed as Homo sapiens) [compound 14]	++ (20%-49% = ++)
++++ (> 75% = ++++)	20 (ALLGFVTDL; listed as Homo sapiens) [compound 20]	++ (20%-49% = ++)
++++ (> 75% = ++++)	23 (GLGPNLVGV; listed as Homo sapiens) [compound 23]	++++ (> = 70% = ++++)
